These results are taken from US20250090663A1 (published 2025).

Targets include Positive Control (27B3); Positive Control (1C8); Positive Control (8G1).
What all share (assay): SPR (Carterra); apparent Kd
Assay [1] addresses T1, CD70 (antigen of the Carterra KD analysis) (UniProt P32970 39-193).
T1 chain: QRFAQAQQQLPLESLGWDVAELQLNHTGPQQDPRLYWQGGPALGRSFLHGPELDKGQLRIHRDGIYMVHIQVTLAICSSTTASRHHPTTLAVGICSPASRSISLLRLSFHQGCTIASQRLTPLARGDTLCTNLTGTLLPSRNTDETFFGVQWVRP

B1: H1-Fc (anti-CD70 VHH-Fc fusion polypeptide) (Fc fusion)
chain: QVQLQESGGGLVQAGGSLRLSCAAPRSIFSINAMGWYRQAPGKQRELVAAITSGGSPTYADSVKGRFTISRDNAKNTVYLQMNSLKAEDTAVYYCATGPYGLDNALDAWGQGTQVTVSS
Turning to B1, the Kd in assay [1] was 2.73 nM.

B2: C1-Fc (anti-CD70 VHH-Fc fusion polypeptide) (Fc fusion)
chain: QVQLQESGGGLVQTGGSLRLACTASGFTFDDYAIAWFRQAPGKEREFVAAISWSGGTTHYADSVKGRFTISRDNAKNTLYLQMSSLKPEDTAVYFCAKSLRSSPSSRWFGSRGQGTQVTVSS
As for B2, the Kd in assay [1] was determined as 23.4 nM.

B3: CD70 (ligand)
chain: QRFAQAQQQLPLESLGWDVAELQLNHTGPQQDPRLYWQGGPALGRSFLHGPELDKGQLRIHRDGIYMVHIQVTLAICSSTTASRHHPTTLAVGICSPASRSISLLRLSFHQGCTIASQRLTPLARGDTLCTNLTGTLLPSRNTDETFFGVQWVRP
On to B3, for which the Kd is 0.634 nM with Positive Control (27B3), 0.652 nM with Positive Control (1C8) and 2.19 nM in the assay with Positive Control (8G1).
